Test results taken from PMC11418285.

Assays:
[1] = target: FcγRIIIa (CD16a) 158F allele (human) (UniProt P08637)
[2] = target: FcγRI (CD64) (human) (UniProt P12314)
Chain of UniProt P12314 (P12314 16-374): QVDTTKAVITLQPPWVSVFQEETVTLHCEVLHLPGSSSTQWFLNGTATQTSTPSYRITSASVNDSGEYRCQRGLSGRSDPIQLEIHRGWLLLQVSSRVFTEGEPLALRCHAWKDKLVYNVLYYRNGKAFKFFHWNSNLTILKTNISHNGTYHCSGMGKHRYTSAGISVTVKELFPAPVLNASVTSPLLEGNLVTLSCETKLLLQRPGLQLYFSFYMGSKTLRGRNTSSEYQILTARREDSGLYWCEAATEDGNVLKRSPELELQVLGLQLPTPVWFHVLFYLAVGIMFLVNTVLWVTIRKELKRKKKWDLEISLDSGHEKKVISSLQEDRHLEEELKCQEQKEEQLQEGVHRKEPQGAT

Chain of UniProt P08637 (P08637 17-254): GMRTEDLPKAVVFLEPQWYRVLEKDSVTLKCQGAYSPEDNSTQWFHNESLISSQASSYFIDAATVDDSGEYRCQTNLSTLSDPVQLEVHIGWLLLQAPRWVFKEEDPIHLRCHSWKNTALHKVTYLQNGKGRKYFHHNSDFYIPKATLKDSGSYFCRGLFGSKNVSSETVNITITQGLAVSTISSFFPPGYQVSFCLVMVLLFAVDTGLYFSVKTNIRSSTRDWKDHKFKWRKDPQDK

Row | Substance | ADCC activity, Fc effector cell reporter bioassay, relative to wild-type IgG1 [1] | ADCP activity, Fc effector cell reporter bioassay, relative to wild-type IgG1 [2]
1 | anti-CD20 antibody with rituximab V regions, afucosylated wild-type human IgG1 | 201 fold | 
2 | anti-CD20 antibody with rituximab V regions, human IgG1 S239D A330L I332E |  | 1.87 fold
